Results on three molecules are retold here after patent US10654908B2, “Isolated T cell receptors and methods of use therefor” (University of Virginia Patent Foundation, priority 2014, dated 2020).

For one assay, the system named is human CD8 T-cells. Briefly: IFN-γ ELISpot of human CD8 T-cells cultured 7 days with peptide-pulsed DC. It is filed as cell-based. The conditions noted are these: for donors with pre-existing memory response: CD45RO+ CD8 T-cells from four donors, 7 days, cutoff >50 spots/25,000 cells; for magnitude of phosphopeptide-specific IFN-γ responses of normal donor T-cells: bulk CD8 T-cells, 7 days with peptide-pulsed autologous DC, restimulated with phosphopeptide-pulsed HLA-A2+ targets.

Assay [1] is described as follows: Immunization of AAD transgenic mice with phosphopeptide-pulsed DC. Particulars: mouse.
Assay [2] has as its system pCDC25b38-46-pulsed C1R-AAD and C1R-A2 targets. Kind of assay: CD107a / IFN-γ flow cytometry of TCR-electroporated human CD8 T-cells on pCDC25b peptide-pulsed targets. The class given is cell-based. Here is the method:
Prior to electroporation, donor T-cells were washed three times in serum-free OPTI-MEM® media (Life Technologies Corporation, Gaithersburg, Md., United States of America) and were suspended at 25×10^6/ml. Cells were mixed with 2 μg IVT RNA of each TCR α and β chain per 10^6 cells and transferred to pre-chilled BTX 2 mm gap cuvettes. Using the BTX T820 electroporation system (BTX Instrument Division, Harvard Apparatus, Inc. Holliston, Mass., United States of America), cells were pulsed at 500V for 0.3 msec. Transfected cells were placed in AIM-V® brand serum-free medium (Life Technologies Corporation, Gaithersburg, Md., United States of America) with 5% AB^+ serum (GEMCELL™; Gemini Bio-Products, West Sacramento, Calif., United States of America) for 8-24 hours and evaluated for TCR expression and functionality.
14-16 hours post-electroporation, phosphopeptide-specific murine TCR-transfected human CD8 T-cells were co-cultured in AIM-V (Life Technologies Corporation, Gaithersburg, Md., United States of America) supplemented with 5% human AB^+ serum (GEMCELL™; Gemini Bio-Products, West Sacramento, Calif., United States of America) with peptide-pulsed or unpulsed C1R-AAD, C1R-A2, or cancer cells endogenously expressing the pIRS-21097-1105 or the pCDC25b38-46 phosphopeptide. Cell surface expression of mouse TCRβ, human CD3, and human CD8 molecules on human CD8 T-cells were assessed using antibodies from either Becton Dickinson Bioscience (San Jose, Calif., United States of America) or eBioScience Inc. (San Diego, Calif., United States of America). […] Cells were then stained for surface molecule expression, fixed and permeabilized using CYTOFIX/CYTOPERM™ (Becton Dickinson Bioscience (San Jose, Calif., United States of America) and stained for intracellular cytokine (anti-IFN-γand anti-TNF-α, eBioScience Inc., San Diego, Calif., United States of America). Immunofluoresence was analyzed using the Becton Dickinson FACSCANTO™ I or FACSCANTO™II flow cytometer and analyzed using FlowJo software (Tree Star, Inc., Ashland, Oreg., United States of America).

Assay [3] relates to C1R-A2 cells pulsed with 1 μM phosphopeptide. Kind of assay: In vitro cytotoxicity assay (CFSE). The class given is cell-based, human. The conditions noted are these: 5 hours co-culture, pulsed versus unpulsed C1R-A2. Here is the method:
Phosphopeptide-specific murine TCR-expressing human CD8 T-cells were co-cultured for 5 hours with a 1:1 mix of C1R-A2 cells pulsed with 1 μM phosphopeptide and stained with 1 μM carboxyfluorescein succinimidyl ester (CFSE; Life Technologies) and unpulsed C1R-A2 cells stained with 0.1 μM CFSE. Specific killing was assessed by evaluating percent loss of the peptide-pulsed population relative to the unpulsed population.

The subject of assay [4] is HLA-A2+ cancer cell lines. Briefly: CD107a / IFN-γ flow cytometry after co-culture with human cancer cells. It is filed as cell-based. Here is the method:
14-16 hours post-electroporation, phosphopeptide-specific murine TCR-transfected human CD8 T-cells were co-cultured in AIM-V (Life Technologies Corporation, Gaithersburg, Md., United States of America) supplemented with 5% human AB^+ serum (GEMCELL™; Gemini Bio-Products, West Sacramento, Calif., United States of America) with peptide-pulsed or unpulsed C1R-AAD, C1R-A2, or cancer cells endogenously expressing the pIRS-21097-1105 or the pCDC25b38-46 phosphopeptide. Cell surface expression of mouse TCRβ, human CD3, and human CD8 molecules on human CD8 T-cells were assessed using antibodies from either Becton Dickinson Bioscience (San Jose, Calif., United States of America) or eBioScience Inc. (San Diego, Calif., United States of America). During a 5 hour co-culture of stimulator cells with phosphopeptide-specific murine TCR-transfected human CD8-T cells at 37° C., anti-human CD107a-Alexa 647 antibody (eBioScience Inc., San Diego, Calif., United States of America) was added in the presence of 5 μg/ml Brefeldin A (SIGMA-ALDRICH® Co. LLC, St. Louis, Mo., United States of America), 5 μg/ml Monensin (eBioScience Inc., San Diego, Calif., United States of America) and 300 IU/ml human IL-2 (Chiron Corporation, Emeryville, Calif., United States of America). Cells were then stained for surface molecule expression, fixed and permeabilized using CYTOFIX/CYTOPERM™ (Becton Dickinson Bioscience (San Jose, Calif., United States of America) and stained for intracellular cytokine (anti-IFN-γand anti-TNF-α, eBioScience Inc., San Diego, Calif., United States of America). Immunofluoresence was analyzed using the Becton Dickinson FACSCANTO™ I or FACSCANTO™II flow cytometer and analyzed using FlowJo software (Tree Star, Inc., Ashland, Oreg., United States of America).
Whether these transfected human CD8 T-cells could recognize endogenously processed and presented pIRS-21097-1105 or pCDC25b38-46 phosphopeptide on HLA-A2^+ cancer cell lines was investigated. To correlate pIRS-21097-1105-specific T-cell recognition with phosphopeptide expression, an antibody specific for the Ser^1100-phosphorylated IRS-2 protein (pSer^1100-IRS-2) as well as an antibody that recognizes total IRS-2 protein (Zarling et al., 2006) were employed. […] These two cell lines also expressed high levels of pSer^1100-IRS-2 (FIG. 4). […] There is no specific antibody for Ser^42-phosphorylated CDC25b.
In general terms: A flow cytometer gives signals particle by particle.

A further assay has as its system AAD+ SLM2 melanoma cells. Kind of assay: Tumor control after adoptive transfer of TCR-expressing human CD8 T-cells. The class given is in vivo, NOD/SCID/IL-2Rγc−/− mice. The text has this: Seven to 8 week old male […] mice (The Jackson Laboratory, Bar Harbor, Me., United States of America) were inoculated subcutaneously with 1.4×10^6 AAD^+ SLM2 melanoma cells. 3×10^6 human CD8 T-cells expressing either pIRS-2- or pCDC25b-specific TCR, or 1.5×10^6 of both populations, were adoptively transferred 3 days later. An additional 1.5×10^6 T-cells were given 4 days later. All mice received 1500 CU of IL-2 (R&D Systems, Inc., Minneapolis, Minn., United States of America) […]. every other day for 10 days. Tumor size was measured every 2-3 days with a digital caliper, and calculated as L×W (mm^2). Tumor free survival is equal to the measurement day when the tumor size was >30 mm^2.
Log-rank (Mantel Cox Test) analysis, Cox proportional hazard modeling, and parametric modeling were performed to determine statistical significance where indicated. p values less than 0.05 were considered significant.

Setting [5] is: recognized / evaluated cell lines.

Where no end group is shown, it is not given here. [ ]: non-standard residue; d: D form. pS = N[C@@H](COP(=O)(O)O)C(=O)O

For the molecule “GLLGpSPVRA (GLLG[pS]PVRA; listed as Homo sapiens) [pCDC25b38-46]”, in the assay on human CD8 T-cells, the “immunogenicity in vitro for human T-cells” value is reported as “strongly immunogenic”; the “donors with pre-existing memory response” value was “all four and four”; the “magnitude of phosphopeptide-specific IFN-γ responses of normal donor T-cells” value is recorded as “surprisingly high”. Besides, in assay [1], the “immunogenicity in vivo for HLA-A2 transgenic mice” value was “strongly immunogenic”.

Regarding “RVApSPTSGV (RVA[pS]PTSGV; listed as Homo sapiens) [pIRS-21097-1105]”, in the assay with human CD8 T-cells, the “immunogenicity in vitro for human T-cells” value was “strongly immunogenic”, the “donors with pre-existing memory response” value was 2/4 and the “magnitude of phosphopeptide-specific IFN-γ responses of normal donor T-cells” value was “surprisingly high”. The “immunogenicity in vivo for HLA-A2 transgenic mice” value in assay [1] is listed as “strongly immunogenic”.

B1: pCDC25b-specific TCR: murine TCR binding GLLGpSPVRA/HLA-A2; α chain SEQ ID NO: 14, β chain SEQ ID NO: 16; tested expressed in human CD8 T-cells (protein, listed as Mus musculus)
alpha: MKTVTGPLFLCFWLQLNCVSRGEQVEQRPPHLSVREGDSAVIICTYTDPNSYYFFWYKQEPGAGLQLLMKVFSSTEINEGQGFTVLLNKKDQQLSLNLTAAHPGDSAVYFCAVKPGGYKVVFGSGTRLLVSPDIQNPEPAVYQLKDPRSQDSTLCLFTDFDSQINVPKTMESGTFITDKTVLDMKAMDSKSNGAIAWSNQTSFTCQDIFKETNATYPSSDVPCDATLTEKSFETDMNLNFQNLSVMGLRILLLKVAGFNLLMTLRLWSS
beta: MSNTAFPDPAWNTTLLSWVALFLLGTKHMEAAVTQSPRNKVAVTGGKVTLSCNQTNNHNNMYWYRQDTGHGLRLIHYSYGAGSTEKGDIPDGYKASRPSQENFSLILELATPSQTSVYFCASGGDTQYFGPGTRLLVLEDLRNVTPPKVSLFEPSKAEIANKQKATLVCLARGFFPDHVELSWWVNGKEVHSGVSTDPQAYKERNYSYCLSSRLRVSATFWHNPRNHFRCQVQFHGLSEEDKWPEGSPKPVTQNISAEAWGRADCGITSASYHQGVLSATILYEILLGKATLYAVLVSGLVLMAMVKKKNS
Turning to B1, the “recognition of phosphopeptide-pulsed targets expressing HLA-A2 compared with AAD” value in assay [2] is “at least as well as those expressing AAD”. Besides, in assay [2] (IFN-γ / CD107a), the “response to HLA-A2+ targets pulsed with high levels of the non-phosphorylated peptide” value is “Neither cell produced IFN-γ or upregulated CD107a”. For the same molecule, the EC50 in assay [2] (human CD8 T-cells electroporated with TCR IVT RNA, phosphopeptide-pulsed AAD+ targets, IFN-γ / CD107a, read-out: peptide dose for half-maximal recognition) was in the range of 0.4 to 0.8 nM. In addition, the “specific killing of peptide-pulsed targets” value in assay [3] is given as “killed pCDC25b38-46-pulsed but not pIRS-21097-1105 or pβ-catenin30-39-pulsed targets”. In assay [4], the “recognition (CD107a / IFN-γ) of HLA-A2+ melanoma cell lines MelSwift and 1102Mel” value was “recognized two HLA-A2^+ melanomas”; the “recognition of HLA-A2+ EBV-transformed lymphoblastoid cell line JY” value was “did recognize”; the “recognition of HLA-A2neg cancer cells T47D and SK-Mel-28” value is on record as “did not recognize”; the “recognition of HLA-A2neg melanoma SK-Mel-28 or HLA-A2+ antigen-low ovarian carcinoma OV-90” value is “failed to recognize”. In assay [4] (compared with peptide-pulsed targets), the “level of recognition of cancer cells” value is “relatively low”. For the same molecule, in assay [4] (setting [5]), the “HLA-A2+ breast carcinomas recognized” value is given as 3/3, the “HLA-A2+ colorectal carcinomas recognized” value is “did not recognize”, the “HLA-A2+ melanomas recognized” value was 3/4 and the “HLA-A2+ ovarian carcinomas recognized” value is “did not recognize”. The tumor-free survival result with AAD+ SLM2 melanoma cells (T-cells on days 3 and 7 plus IL-2, versus IL-2 only control, tumor-free = tumor size not >30 mm^2) is on record as “enhanced tumor-free survival”. Moreover, the “tumor outgrowth in comparison to control animals” value in the assay on AAD+ SLM2 melanoma cells (control received IL-2 only) is reported as “delayed outgrowth”.
